# Laboratory results from the supplement of paper PMC7125110.
# ± gives the standard error. For part of these data: Fewer inactive variants are shown than the library holds.
# B1: glmS ribozyme (parent)
# chain: AUAAAAGCGCCAGAACUACAGAAAUGUAGUUGACGAGGAGGAGGUUUAUCGAAUUUUCGGCGGAUGCCUCCAAA
# Experiments:
# Conditions in all cases: with glucosamine-6-phosphate
# glucosamine-6-phosphate [1] = variants of: B1; assay: kcat; higher = faster cleavage; RNA array
# Method in brief: (§1)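 E. coli RNA polymerase transcribed barcoded ribozyme variants in situ on sequenced MiSeq chips, which were tracked via a hybridised Cy3 probe at 37 °C. Tiles were imaged over ~14 h after glucosamine-6-phosphate (40 μM to 10 mM) in HEPES/KCl/Mg(OAc)2 buffer was flowed in. Normalised per-tile medians were fit to one- or two-exponential decays for kobs, and kcat and KM came from weighted Michaelis–Menten fits.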
# glucosamine-6-phosphate [2] = variants of: B1; assay: KM; higher = weaker cofactor use; RNA array
# Method in brief: as §1
# glucosamine-6-phosphate [3] = variants of: B1; assay: self-cleavage kobs at 640 uM GlcN6P; higher = faster cleavage; RNA array
# Method in brief: as §1
# glucosamine-6-phosphate [4] = variants of: B1; assay: self-cleavage kobs at 2500 uM GlcN6P; higher = faster cleavage; RNA array
# Method in brief: as §1
# glucosamine-6-phosphate [5] = variants of: B1; assay: self-cleavage kobs at 10000 uM GlcN6P; higher = faster cleavage; RNA array
# Method in brief: as §1
# glucosamine-6-phosphate [6] = variants of: B1; assay: self-cleavage kobs at 160 uM GlcN6P; higher = faster cleavage; RNA array
# Method in brief: as §1
# glucosamine-6-phosphate [7] = variants of: B1; assay: self-cleavage kobs at 40 uM GlcN6P; higher = faster cleavage; RNA array
# Method in brief: as §1
Variant,kcat (glucosamine-6-phosphate [1]) [s⁻¹],KM (glucosamine-6-phosphate [2]) [µM],self-cleavage kobs at 640 uM GlcN6P (glucosamine-6-phosphate [3]) [s⁻¹],self-cleavage kobs at 2500 uM GlcN6P (glucosamine-6-phosphate [4]) [s⁻¹],self-cleavage kobs at 10000 uM GlcN6P (glucosamine-6-phosphate [5]) [s⁻¹],self-cleavage kobs at 160 uM GlcN6P (glucosamine-6-phosphate [6]) [s⁻¹],self-cleavage kobs at 40 uM GlcN6P (glucosamine-6-phosphate [7]) [s⁻¹]
U30G G66U,0.000295 ± 2e-05,1760 ± 290,8.02e-05 ± 1.2e-05,0.000147 ± 3.5e-05,0.000256 ± 2.4e-05,,
G29C U31C,0.000387 ± 3.9e-05,3280 ± 690,5.78e-05 ± 1.8e-05,0.000184 ± 3.4e-05,0.000284 ± 4.2e-05,,
U30G G43U,1.16e-05 ± 2.3e-06,,< 1e-05,,,< 1e-05,
G29U A64U,1.06e-05 ± 2.5e-07,4920 ± 300,< 1e-05,,,< 1e-05,
U30C G62U,< 1e-05,,,,< 1e-05,< 1e-05,
U30C G62A,< 1e-05,,< 1e-05,,,,
U30A G60A,< 1e-05,,< 1e-05,,,,< 1e-05
G29C U65G,0.00083 ± 0.00013,4400 ± 1000,0.000115 ± 2.7e-05,0.000279 ± 7.3e-05,0.000591 ± 0.00015,,
U30C C67G C68A,1.14e-05 ± 4e-06,,,,< 1e-05,,< 1e-05
U31C A39C,0.00127 ± 0.00014,2620 ± 500,0.000259 ± 2.4e-05,0.00058 ± 5.1e-05,0.00102 ± 6.7e-05,6.64e-05 ± 9.6e-06,3.17e-05 ± 7.1e-06
U31C A39G,0.018 ± 0.0061,4940 ± 2200,0.00212 ± 0.00039,0.00524 ± 0.0013,0.0125 ± 0.0018,0.000489 ± 8.5e-05,0.000253 ± 4.8e-05
U30G U31A,0.0147 ± 0.001,914 ± 110,,,0.0137 ± 0.0031,,0.000631 ± 0.0002
U31A A42G,0.0179 ± 0.0037,1430 ± 370,,0.00902 ± 0.0026,0.0188 ± 0.0042,0.00191 ± 0.00054,0.000495 ± 7.3e-05
G29C U45C,0.000137 ± 2.1e-05,2120 ± 930,,9.03e-05 ± 2e-05,0.000108 ± 1.8e-05,,
G29C U45G,0.000453 ± 2e-05,4250 ± 400,6.1e-05 ± 1.6e-05,0.000159 ± 3.6e-05,0.000319 ± 3.3e-05,,
U30A U56C,0.0028 ± 0.00091,,0.000126 ± 2.4e-05,0.000369 ± 8.1e-05,0.00113 ± 0.00015,,

Variant,kcat (glucosamine-6-phosphate [1]) [s⁻¹],KM (glucosamine-6-phosphate [2]) [µM],self-cleavage kobs at 640 uM GlcN6P (glucosamine-6-phosphate [3]) [s⁻¹],self-cleavage kobs at 2500 uM GlcN6P (glucosamine-6-phosphate [4]) [s⁻¹],self-cleavage kobs at 10000 uM GlcN6P (glucosamine-6-phosphate [5]) [s⁻¹],self-cleavage kobs at 160 uM GlcN6P (glucosamine-6-phosphate [6]) [s⁻¹],self-cleavage kobs at 40 uM GlcN6P (glucosamine-6-phosphate [7]) [s⁻¹]
U30A A33U,5.67e-05 ± 3.2e-06,4010 ± 660,,,4.04e-05 ± 8.7e-06,< 1e-05,< 1e-05
U30A U45A,0.00916 ± 0.0024,1290 ± 500,0.00285 ± 0.00065,0.00515 ± 0.001,0.0107 ± 0.0021,0.000872 ± 0.00018,0.000369 ± 6.4e-05
U30C U54A,0.000514 ± 7.7e-05,3790 ± 1100,8.25e-05 ± 2.1e-05,0.000182 ± 5.3e-05,0.000378 ± 5.6e-05,,
U30A G38A,< 1e-05,,,,< 1e-05,,< 1e-05
U30C C58G,2e-05 ± 1.6e-06,,< 1e-05,,,,
U30C C58U,3.26e-05 ± 1.4e-05,,< 1e-05,,,,
G29U A39G,0.0173 ± 0.0026,3640 ± 720,0.00233 ± 0.0004,0.0072 ± 0.0012,0.0129 ± 0.0028,0.000723 ± 0.00021,0.000218 ± 4.4e-05
U31C,0.00939 ± 0.0013,2370 ± 430,0.00208 ± 7.4e-05,0.00415 ± 0.00014,0.00805 ± 0.00018,0.000489 ± 1.7e-05,0.000168 ± 2.9e-06
U31A,0.0242 ± 0.0089,2460 ± 1100,0.00431 ± 0.00015,0.00997 ± 0.00043,0.0286 ± 0.0012,0.00127 ± 5.8e-05,0.000428 ± 7.9e-06
U31A U57A,0.000241 ± 3.5e-06,2390 ± 95,4.97e-05 ± 2.1e-05,0.000125 ± 2.8e-05,0.000194 ± 2.7e-05,,
U31A G37C,3.35e-05 ± 2.7e-06,1840 ± 580,,,,,
U31A G37A,0.0007 ± 0.00026,,0.000245 ± 3.6e-05,0.000309 ± 7.3e-05,0.000939 ± 0.00018,6.91e-05 ± 1.3e-05,
G29U U54C,0.00486 ± 0.0013,1540 ± 590,0.00146 ± 0.00023,0.00249 ± 0.00049,0.00596 ± 0.0013,0.000421 ± 6.8e-05,0.000157 ± 3.1e-05
G29U U54A,0.00792 ± 0.0027,2360 ± 1100,0.00184 ± 0.0003,0.00361 ± 0.0006,0.0068 ± 0.00083,0.000284 ± 7.7e-05,0.000181 ± 1.9e-05
U30C C71U,0.000335 ± 3.4e-05,1530 ± 340,9.35e-05 ± 1e-05,0.000195 ± 1.6e-05,0.000307 ± 2.3e-05,4.2e-05 ± 6.8e-06,
U31A A48G,2.21e-05 ± 4.8e-06,,,3.3e-05 ± 1.1e-05,1.74e-05 ± 7.5e-06,,
